In the domain aggregation screens of Martell et al. (2025):

assay: soluble fraction after stress (log2 fold change); higher = more stays soluble; pooled small domains, quantitative proteomics; conditions: stress: pH 4
Method in brief: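 How much of each domain stays soluble after acid stress, expressed as a fold change, is used to gauge aggregation propensity. Pooled custom libraries of small domains underwent pH 4 stress before high-throughput quantitative proteomics. A higher log2 value means more of the domain stayed soluble.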

Row | Sequence | soluble fraction (log2)
1 | HMHPTEKNLTSLLADGSFYMNQNKLETAYDTFTKTIELDPSWAEAWNKRATVLYLMGKYELSQADIDQV | -0.176
2 | HMHPVTGRIGTVTAANGLNLRADSSEYANVVATLGYGVDVTVTGERINGFYPVRVGTLSGYVSADYVSFNS | -0.299
3 | HMHQVHKIDGVKYYLHLVEKGNTLYGISKQYNVSVERIEKANTEALSDGLKENQTLLIPVTSDNKKT | 0.0091
4 | HMHREITGSLAERNGRYTAILNLYDEDGKRRQKSIALGIPVKGNKRKAQAQLEELKRAYSLGLPQ | 0.051
5 | HMHRGTPASIIAAAKQYLTGGQTVELYEREGGPWTFRLRTYLSETPYPEKVRASVEALKPAGVVFLYELQS | -0.112
6 | HMHRIKRRNDTLVSALDSIAGIGAKRKKALLQHFGSVRAIKAVSAEEIAKVEGISPTLANQIFEAL | -0.0221
7 | HMHRTMFYLDVDLAEGQSVKMAVHEDDDPGELAARFADEHQLKSRAMEKLRSVIEENVRLHRRNQ | -0.306
8 | HMHRTRNAERTRAAVLKAAAEVLAERGTGASLARIAEVAGVSKSGLLHHFANREQLIVALLED | -0.462
9 | HMHSIFPVIRSTSFPTKSNDGELFITSDHTAETRIYYALDLGNTYRLIDQKVMNEINLTESLVKETARF | -1.63
10 | HMHSILDDIEGIGPARRKALMRHYMNLDAIKSATVEELAAVPSMNEKSAKAVHNFFHQQKKD | 0.22
11 | HMHSKQRDAIFENLRSRKDHPTAEEIYLSLKPAMPAISLATVYRNLAQLENEGLILRLGSGGSARYDGDT | 0.164
12 | HMHSLGDQVFETIKELIVNNTYQPGELLQIDKLAAEFGVSTTPVREALLRLEGLGLVDIERNKAAVVT | -0.352
13 | HMHSPLLDRYLAEVGWRLRHLSGAQREDILAGLREHIADLESAGVAPEEIVARLGSPESVADAAAGEF | 0.0489
14 | HMHSPTFYVHVVGQVKVPGVYELEVGSRLFDAVIAAGGFKDDADQASVNLARPLSDGEQIVVLKLGDQ | -0.732
15 | HMHTADDFKQLAKQTSNGQLRTRYLALYLFKNGETRTQIATYLGVARGSVNTWVSNYLAHGLEGLQSKP | 0.0388
16 | HMHTSEDLEKLLTRYFQSHESINRQQFEQLSGFTRTTASRRLKALVEAGKLKNIGLHHFPVYKPTEGNF | 0.134
17 | HMHVGVWIMNEKGEILLEQRASNKKVDPNKWARIGGHVDAGEKPIQAIQREILEEIGVKIPLENFIVLET | -0.592
18 | HMHVLAVDEALHKLTELNELHAKIVEMRFFSGMTVQEVADELGVSKRKIESEWTMIKAWLRKELN | -0.916
19 | HMHVSLSGKIHSELRKLILNGELKAGERLPSEPDLAHELGVSRNSLREAIGLLQREGLLLKKHGIGTFVTD | 0.183
20 | HMHVYQSLVTDRVVPGGGYRTTEAILSTEAWRNTLLEQAKRELIGVRNKYASLTELAKVWTAIDTVT | -0.249
21 | HMHYALTVDFPAALEARIDPAHRAALRGVLAHDPRPSYQSDPERLYGVAFAGKNVKFTVEDGVLTVRKIEE | -0.267
22 | HMHYKLIIFENHTKSTSLDITPEQARQILGVTDYTPEQYEILAEITNRPASYFMDDLVDYYVD | -1.53
23 | HMHYNMNYLENLTKTELFDLAKNKFGLTYAEMERHLSIPEGGARYAIKAEHSKYGSDIKKYLVEFLLE | -0.134

Row | Sequence | soluble fraction (log2)
24 | HMIADPAKPDWTTILAPVTTGTTVTHKTFGQGTVTKLDKTKKYLTVSFAAGQKNFVFPNAFIDGFLK | -0.105
25 | HMIADSSSIHQDAKQQLHSYLRTNIQPLMRAGKQLDLKDILHHVTIRKPKLVQQLGMKQVQHMVQVLLD | 0.184
26 | HMIAGHLQEKKGFFYIVLSYPDAAGKRKTKWFPTKLSVKGNKKKAEVMLMDARKTFVPPETPL | 0.207
27 | HMIAITVGSKVRVKAGATFSDGTKPFTEVYNTVYDVQLLSRNGKEARIGIGEQWTGWMYISDLYPADQ | 0.00391
28 | HMIAPQISSGKVNTKELNVRSGPATTFGIVKKLPLNAMVGIFEEKNGWFRIATGQWVSKTYVDL | 0.187
29 | HMIAVLEEGSRFRAINDISGKPFGPEMIIKNGQVIAAGKKILTKPKKLIGKKEGTKFNISGKEYVIKDI | -0.834
30 | HMIAWNFDTMKESLSEMERVDYQEFIKAFLSLELSISDRTILNQVYQDYMDEDDLSLISDELRV | -1.4
31 | HMIDDNTIIQIGDSYSKSIRLLGEPIELKNRSLNQKSYFMAVYDFKGRRYRLFFENDVLFDILRD | -0.486
32 | HMIDELLDPTHRIMVRHPRVDYVSPGFLIGPDKDVILWGFTGGIIARLFDFLGWTRPWDQSHVQDLPPYML | -0.242
33 | HMIDENILSEEIKHYIETNNYAKDDKLPSERSLASLFNVSRALVRKSLISLVDVNYLYVKDKSGYYING | -0.52
34 | HMIDEPENLIQEDKMVNIIYDLALLEGVKTFNSSNFQSVKSNDFVYKKYKIDSLQFAKSTQFYASDINR | -0.404
35 | HMIDFDEIEILSSSKIEKIENSEYLKSSIFEKDSNQYIYRLSFENRDQLKNFKKEIEDIDQIKKIDVTY | -0.665
36 | HMIDHKVIRSFRQKRNMTLQELAQKANLSVSYLSEIELGKKQPSLETLDKLSKALNISLEGL | 0.131
37 | HMIDHLPPQRAAVLAFLQRELVAGRSPSLAEIALAFGFASRNAAQKHVQALVADGLLEQATGRSRGLRLPG | -0.235
38 | HMIDIGSKIKKLRSKKSIEIGKKYTGAMLANELGISRSYLGDIESGRTVPNEIILGKIADIFDVDIYELIG | -0.405
39 | HMIDLPEAFIQQLKEAVDVGDVTGLRELLGQLRRRYPQQSALSDEAERLLREFDFERLAQLFEGLD | -1.54
40 | HMIDNFFTIRFNYSKINEVIRLLKEFNGEIFNKNYDKNEYIIEFSIPKKDAALLISKLKNITGLTIEQ | -0.538
41 | HMIDQIAEQLQQRLAVDTAFATIQRDYPDVIANKDIELLTAIKVNQKIAEGASRASAMLESAKEVYETL | -0.329
42 | HMIDRPLTLVEDYERFAGELAKITLRFMLDGRKRFNGRLAGFDEDGKIVLETSFGRFAFSFDEIDSARI | -2.08
43 | HMIDSVFASYRQVALDDELWDKVRNGAVLPKVELFEVMDGPVLFTYQSKIVAMYEPHPTKAGYIKPRKMFL | -1.52
44 | HMIDTTKILPGQEFKNMQELSVALTGQKMPAGKGYVLQQEKFKLYFSWKKITGTHKLIIDEIYEEPKT | -0.573
45 | HMIDYIKYTVDGKTYELINNWDGTWSRELEAPLVAGRYDLLLEISQNGLVTYIDSSDPRYEFYLDVI | -2.3
46 | HMIEESTVPDLKGKSQEDAIKLLEDANLKYQIVEEESKKIEAGYVISQETDANKKVNAGDTVIIHVST | -0.0907

Row | Sequence | soluble fraction (log2)
47 | HMIEFYTMQDMFYFKLTGDNTSRERREALGKILGIGYGNATQMVSRLNNYGISKEEFSKAIEEIEKQLEA | -1.36
48 | HMIEIKNLSFSYGKKKQSVFNDFSLTLDKGSVYGLLGKNGTGKSTLLYLMTGLLRPQAGQVLYKGVDVS | 0.159
49 | HMIEKVNDYVVRFANVNGTGSASANNLFALAIYRMGVPVTPKNIFPSNIQGLPTWFEVRVSGSGYLARRG | 0.129
50 | HMIELDRTNLLGVFGPKSRPYALLMLSNGEMIKISIGDQFFGWRVYGIDEKSIQVQNGTKQEILRIP | -1.19
51 | HMIENGILELKGKTGVAQTVLRPSGKVLIDDEIYDAVALTGYIEKADKVLVTKVEATQLYVEK | -0.289
52 | HMIERLVVSPAAGVFTKKMSVENNTRIDVGHVLGHVGETEVRSPFAGILQNYIAVDGERLTAHQPIAWLRS | 0.15
53 | HMIERVLRTEEHIEAFAGEEVEAKLFAPIDGKKTLRGILGGIEDGRVILTVGDTEYRIEHAKISRLTTVFD | -0.712
54 | HMIESVMVGIKELLGDTIDQKYEKYIRLGGIPSDEVDEFNSVFSAYEKVNGNHNGKKKYDYVMNNLPIIPV | -1.54
55 | HMIETIQVPRAFNDWHEQADKTKSVFEVYAEIEASENEKLIAWVRNNQNEFAKIWLGALIPELE | -1.24
56 | HMIGHIGSAVMLNAKLRPRLPLLHVLALTQSLGERLSAAEAQPEVYRWSDPGQSRVIAEFEGGRLTRWRLE | -0.968
57 | HMIGVIVDEVDPDSSLKSGDIITEVNREVILNIDDFVGLVEQIQKTGRSSLLLKILRDKKSLWVTIQFV | 0.22
58 | HMIHQIPVNVQKIRQIIGINLNENDYLNYLAKLGFVIDEGLIIVPSFRSDVKTQNDLAEEIARV | -0.236
59 | HMIINFDAIKLTTELNKYKRHKAIPNTFFDGTYTILDVRELYNDLTPKAQKIADELIEHYNVDVK | -1.69
60 | HMIINLGELLKMLEVNKYQDAMDALDSLIEEGGSLEKIESLHEIRQHTHAMNFREAERLLSILIESEGA | -1.41
61 | HMIISPKKLEYRQRIINALGDRKMSLNELSKAMGYKGITTKLSFTVDDMIKSGVIEKVMVGAYAKLHIP | 0.22
62 | HMIIVMKRNATETQIDHVVRWVESIGYRAHRSNGTEQTVVKAVGGERGGEELKYLAALSGVEKVVPIR | 0.141
63 | HMIKDSKAAYKILGVDENATNEEIKKAYRQLVINHHPDKVSHLGEDIQRAANEKLKQINAAYDEIKKQRGF | 0.171
64 | HMIKEGDLVFIWNPKKGDSFLIKVQPGQSQGTHFGQIKHSEIMEHNYGEGIRTPKGQVYYLLRPTLGEFTR | -0.38
65 | HMIKEVGYEKFMQMTEEEDIGRVEIDQEENQITFTDKDETAIYKTGMVDDPDLTERLYDAGAEFS | -0.591
66 | HMIKIDESTLSEDELKIFEILKIEDKNIENIAIESKILPGKLLATLMNMEMKKIVVQYPGKVFGLNRKLK | 0.0566
67 | HMIKKAILPVAGLGTRFLPASKSIPKEMVTVVDRPAIEYVVREAVEAGIEQIILVTHSSKASIENYFDR | -0.217
68 | HMIKKLDIEPIIKSVVDDFNNIYKLKRGITISYLNDGKNKYFINGIENRIEQIIANLLDNSISFSEDNKDV | 0.122
